Source: the RNAGym collection of RNA variant scans (doi:10.1073/pnas.2313332121)
Variants at the floor of the assay were thinned out.

B1: TPR 5TU (parent)
chain: GGAUCUUCUCGAUCUAACAAAAAAGACAAAUCUGCCACAAAGCUUGAGAGCAUCUUCGGAUGCAGAGGCGGCAGCCUUCGGUGGCGCGAUAGCGCCAACGUUCUCAACUAUGACACGCAAAACGCGUGCUCCGUUGAAUGGAGUUUAUCAUG

Variants of: B1
Assay: polymerase ribozyme fitness, log enrichment relative to wild type (log ratio); higher = more active; in vitro selection for triplet polymerase activity
Method in brief: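 Genotype fitness is the logarithm of its enrichment divided by wild-type enrichment, using inverse-variance-weighted averages of replicates. That logarithm is base 2. Enrichment was measured by Illumina sequencing of input and output libraries from one triplicate in vitro selection round, with frozen incubation at −7 °C, on PCR-built, transcribed mutant libraries of each subunit of a heterodimeric triplet polymerase ribozyme, retaining genotypes with ≥10 input reads and ≥1 read per output.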

Question: With A28U A47C U130G as the variant, how does the “polymerase ribozyme fitness (log ratio)” value read?
Answer: ≤ -4.2

Question: With A29C C38G G65U U77A G81C A137G as the variant, how does the “polymerase ribozyme fitness (log ratio)” value read?
Answer: ≤ -4.2

Question: For A28U A37U A73G G92U A106G C118G, which “polymerase ribozyme fitness (log ratio)” value is on record?
Answer: ≤ -4.2

Question: With A28U A39C A98G G143U U144G U146G as the variant, how does the “polymerase ribozyme fitness (log ratio)” value read?
Answer: ≤ -4.2

Question: For A28U C87U A119C A138U G140C, which “polymerase ribozyme fitness (log ratio)” value is on record?
Answer: ≤ -4.2

Question: For A28G G94A, which “polymerase ribozyme fitness (log ratio)” value is on record?
Answer: -3.42

Question: Which “polymerase ribozyme fitness (log ratio)” value does the source give for A29C G58A C87G C93G G133A U145C here?
Answer: ≤ -4.2

Question: For A29C C35U G50C G58U U61G C96A U134A, which “polymerase ribozyme fitness (log ratio)” value is on record?
Answer: ≤ -4.2

Question: For A29C A49C C57G C132U, which “polymerase ribozyme fitness (log ratio)” value is on record?
Answer: ≤ -4.2

Question: For A28U A39G A66G C76A G81C, which “polymerase ribozyme fitness (log ratio)” value is on record?
Answer: ≤ -4.2

Question: Which “polymerase ribozyme fitness (log ratio)” value does the source give for A28G G50C A122G U145C U148A here?
Answer: ≤ -4.2

Question: For A28U U90G C99U G141U U151G, which “polymerase ribozyme fitness (log ratio)” value is on record?
Answer: ≤ -4.2

Question: Which “polymerase ribozyme fitness (log ratio)” value does the source give for A28U A29U A37G A66U A73U U78G G84A here?
Answer: ≤ -4.2

Question: With A28U G92A G140C as the variant, how does the “polymerase ribozyme fitness (log ratio)” value read?
Answer: -3.61

Question: With A28U A41C C75U G81A C103G C149G as the variant, how does the “polymerase ribozyme fitness (log ratio)” value read?
Answer: ≤ -4.2

Question: With A28U A60C C87A C96U as the variant, how does the “polymerase ribozyme fitness (log ratio)” value read?
Answer: ≤ -4.2

Question: Which “polymerase ribozyme fitness (log ratio)” value does the source give for A28U C32U G42C G84A A89G G92A C131A U148A here?
Answer: ≤ -4.2

Question: Which “polymerase ribozyme fitness (log ratio)” value does the source give for A28U A47C here?
Answer: -3.9

Question: For A28U A47C G74C C95U A142C C149A, which “polymerase ribozyme fitness (log ratio)” value is on record?
Answer: ≤ -4.2

Question: With A28U U61G C87G as the variant, how does the “polymerase ribozyme fitness (log ratio)” value read?
Answer: -4.14

Question: With A28G C54U C93A U127A as the variant, how does the “polymerase ribozyme fitness (log ratio)” value read?
Answer: ≤ -4.2

Question: For A29C C54A G70U, which “polymerase ribozyme fitness (log ratio)” value is on record?
Answer: ≤ -4.2

Question: For A28U A29C U45A G58C C85U C105U A106G, which “polymerase ribozyme fitness (log ratio)” value is on record?
Answer: ≤ -4.2

Question: Which “polymerase ribozyme fitness (log ratio)” value does the source give for A28U G84U here?
Answer: ≤ -4.2

Question: With A29C A30C G65A C93U G136A as the variant, how does the “polymerase ribozyme fitness (log ratio)” value read?
Answer: ≤ -4.2

Question: For A28G C79G C85U A115C U151A, which “polymerase ribozyme fitness (log ratio)” value is on record?
Answer: ≤ -4.2

Question: For A28U C35G C54A C79A G80C A89C G94A, which “polymerase ribozyme fitness (log ratio)” value is on record?
Answer: ≤ -4.2

Question: For A29C A52G U55A C75G A106U A110G A121U U127A, which “polymerase ribozyme fitness (log ratio)” value is on record?
Answer: ≤ -4.2

Question: Which “polymerase ribozyme fitness (log ratio)” value does the source give for A29C C36A U55A U61G C87A here?
Answer: ≤ -4.2

Question: With A28U G80A A91U as the variant, how does the “polymerase ribozyme fitness (log ratio)” value read?
Answer: ≤ -4.2

Question: With A29C A41U G81C G86C C105G A106U as the variant, how does the “polymerase ribozyme fitness (log ratio)” value read?
Answer: ≤ -4.2

Question: For A28U U77C, which “polymerase ribozyme fitness (log ratio)” value is on record?
Answer: ≤ -4.2

Question: With A28U U44G U82G C87U C114U G133A U146G as the variant, how does the “polymerase ribozyme fitness (log ratio)” value read?
Answer: ≤ -4.2

Question: With A29C G59U G92C C96A A107G C125U U127G as the variant, how does the “polymerase ribozyme fitness (log ratio)” value read?
Answer: ≤ -4.2

Question: With A28U U55A C72U U90C A115G as the variant, how does the “polymerase ribozyme fitness (log ratio)” value read?
Answer: ≤ -4.2

Question: With A28G G34U G80A U102A C108G as the variant, how does the “polymerase ribozyme fitness (log ratio)” value read?
Answer: ≤ -4.2

Question: For A28U G50U G59A, which “polymerase ribozyme fitness (log ratio)” value is on record?
Answer: ≤ -4.2

Question: For A28U G67U C103A, which “polymerase ribozyme fitness (log ratio)” value is on record?
Answer: ≤ -4.2

Question: Which “polymerase ribozyme fitness (log ratio)” value does the source give for A28U A29G C75G G81U C85G A106C C129A here?
Answer: ≤ -4.2

Question: For A28U A30C C32A A47C G58C C85U A107U, which “polymerase ribozyme fitness (log ratio)” value is on record?
Answer: ≤ -4.2

Question: Which “polymerase ribozyme fitness (log ratio)” value does the source give for A29C C63U G65U U144G here?
Answer: ≤ -4.2

Question: Which “polymerase ribozyme fitness (log ratio)” value does the source give for A28G G50C G81C C95G C96U A98C A113U G143U here?
Answer: ≤ -4.2

Question: With A29C A39U A52C U101G C125G G126A G143U U146C as the variant, how does the “polymerase ribozyme fitness (log ratio)” value read?
Answer: ≤ -4.2

Question: Which “polymerase ribozyme fitness (log ratio)” value does the source give for A28U A29U U61A G81A C93A here?
Answer: ≤ -4.2

Question: With A29C A41C G62A G84A U90A C118G as the variant, how does the “polymerase ribozyme fitness (log ratio)” value read?
Answer: ≤ -4.2

Question: With A28U A30U A39U G50C C57G C75G U82A G83C G124U as the variant, how does the “polymerase ribozyme fitness (log ratio)” value read?
Answer: ≤ -4.2

Question: For A28U G50A C132U, which “polymerase ribozyme fitness (log ratio)” value is on record?
Answer: ≤ -4.2

Question: With A29C A49G C87A A150G as the variant, how does the “polymerase ribozyme fitness (log ratio)” value read?
Answer: ≤ -4.2

Question: Which “polymerase ribozyme fitness (log ratio)” value does the source give for A28U A37C C87A G117A G140C here?
Answer: ≤ -4.2

Question: With A28U C76G G92U as the variant, how does the “polymerase ribozyme fitness (log ratio)” value read?
Answer: ≤ -4.2

Question: With A28G U56A G136C as the variant, how does the “polymerase ribozyme fitness (log ratio)” value read?
Answer: ≤ -4.2

Question: Which “polymerase ribozyme fitness (log ratio)” value does the source give for A28U C54U C63U G71U C108U C114U A137U U139G A150G here?
Answer: ≤ -4.2

Question: Which “polymerase ribozyme fitness (log ratio)” value does the source give for A28G C116U here?
Answer: -3.63

Question: For A28U U55A, which “polymerase ribozyme fitness (log ratio)” value is on record?
Answer: -4.13

Question: Which “polymerase ribozyme fitness (log ratio)” value does the source give for A28U A66U A73G G86U C103G C116U G152U here?
Answer: ≤ -4.2

Question: Which “polymerase ribozyme fitness (log ratio)” value does the source give for A28G G42U here?
Answer: ≤ -4.2

Question: With A28G C36U as the variant, how does the “polymerase ribozyme fitness (log ratio)” value read?
Answer: ≤ -4.2

Question: With A29C G62U G80C C118A as the variant, how does the “polymerase ribozyme fitness (log ratio)” value read?
Answer: ≤ -4.2

Question: With A28G G46A C85A A91G as the variant, how does the “polymerase ribozyme fitness (log ratio)” value read?
Answer: ≤ -4.2

Question: Which “polymerase ribozyme fitness (log ratio)” value does the source give for A29C A30U A97U C103U C116G G133A here?
Answer: ≤ -4.2

Question: With A28U C99A as the variant, how does the “polymerase ribozyme fitness (log ratio)” value read?
Answer: -4.15

Question: Which “polymerase ribozyme fitness (log ratio)” value does the source give for A28G U31G C36A U56A C95A G141C here?
Answer: -3.69

Question: For A29C G65A C108U C116G C125A U146G A150G, which “polymerase ribozyme fitness (log ratio)” value is on record?
Answer: ≤ -4.2

Question: For A28G U53G C85A U104G A106G A138U A147G, which “polymerase ribozyme fitness (log ratio)” value is on record?
Answer: ≤ -4.2

Question: Which “polymerase ribozyme fitness (log ratio)” value does the source give for A29C C35A here?
Answer: -3.91

Question: With A28U C87G C118G as the variant, how does the “polymerase ribozyme fitness (log ratio)” value read?
Answer: ≤ -4.2

Question: Which “polymerase ribozyme fitness (log ratio)” value does the source give for A29C C87G G117A here?
Answer: ≤ -4.2

Question: For A28U A41U C57A G70C G88U A89U C95A, which “polymerase ribozyme fitness (log ratio)” value is on record?
Answer: ≤ -4.2

Question: For A29C G50U G81A C95A G133U, which “polymerase ribozyme fitness (log ratio)” value is on record?
Answer: ≤ -4.2

Question: For A29C A39U C96A, which “polymerase ribozyme fitness (log ratio)” value is on record?
Answer: ≤ -4.2

Question: Which “polymerase ribozyme fitness (log ratio)” value does the source give for A28G G58U here?
Answer: ≤ -4.2

Question: For A28U A41C C96A G141C, which “polymerase ribozyme fitness (log ratio)” value is on record?
Answer: -4.02

Question: With A28G C93U U127C as the variant, how does the “polymerase ribozyme fitness (log ratio)” value read?
Answer: ≤ -4.2

Question: With A28G G80A G141A as the variant, how does the “polymerase ribozyme fitness (log ratio)” value read?
Answer: ≤ -4.2

Question: With A28U A41C G88C as the variant, how does the “polymerase ribozyme fitness (log ratio)” value read?
Answer: ≤ -4.2

Question: With A29C A41G G59C G62C G100A G141C as the variant, how does the “polymerase ribozyme fitness (log ratio)” value read?
Answer: ≤ -4.2

Question: Which “polymerase ribozyme fitness (log ratio)” value does the source give for A29C A40G C123A U127A here?
Answer: ≤ -4.2

Question: Which “polymerase ribozyme fitness (log ratio)” value does the source give for A28G U61G C95A A97U A107U here?
Answer: ≤ -4.2

Question: For A28U C35U, which “polymerase ribozyme fitness (log ratio)” value is on record?
Answer: -4.12

Question: With A29C G92A G143C U146C as the variant, how does the “polymerase ribozyme fitness (log ratio)” value read?
Answer: ≤ -4.2

Question: For A28U C96U, which “polymerase ribozyme fitness (log ratio)” value is on record?
Answer: -3.66

Question: Which “polymerase ribozyme fitness (log ratio)” value does the source give for A28U C96A here?
Answer: -3.93

Question: For A28U A30C C79A, which “polymerase ribozyme fitness (log ratio)” value is on record?
Answer: ≤ -4.2

Question: For A29C A89G C95G U139C G140A G141U A142C, which “polymerase ribozyme fitness (log ratio)” value is on record?
Answer: ≤ -4.2
